# Measurements: the RNAGym collection of RNA variant scans (doi:10.1073/pnas.2313332121)
# B1: TPR t1 (parent)
# chain: GACCAAUCUGCCCUCAGAGCUCGAGAACAUCUUCGGAUGCAGAGGAGGCAGGCUUCGGUGGCGCGAUAGCGCCAACGUCCUCAACCUCCAAUGCAUCCCACCACAUGAUGAUGCCUGAAGAGCCUUGGUUUUUUG
# Variants of: B1
# Test: polymerase ribozyme fitness, log enrichment relative to wild type (log ratio); higher = more active; in vitro selection for triplet polymerase activity
# Outline: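 A heterodimeric triplet polymerase ribozyme had each of its subunits mutagenized by PCR into a library, which was transcribed. One round of in vitro selection, done in triplicate, annealed each library with a biotinylated primer, its partner subunit and triplets, then incubated it frozen at −7 °C before gel excision of extended constructs, streptavidin-bead capture and RT-PCR. Fitness is the logarithm of genotype enrichment relative to wild-type enrichment, based on Illumina sequencing of inputs and outputs and inverse-variance-weighted replicate averages. A base-2 logarithm is used, and genotypes were kept only with ≥10 input reads and ≥1 read per output.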
row,Variant,polymerase ribozyme fitness (log ratio)
1,C70A U106C,-2.99
2,G69U U87C,0.421
3,C70G U78C G113C,-5.1
4,C70G A100U C115A G120U,-2.99
5,G69C C86U,-1.37
6,C70G C123U,-0.882
7,C70A C86U,-1.81
8,C70G U129A,-4.27
9,C70A G77A C97A A121U,-5.66
10,C70G U81A G117U G120A,-5.65
11,C70U C123U,0.707
12,C70U C123G,0.306
13,C70U C123A,-0.0908
14,G69U C98U U129C,-1.15
15,G69U C94U G120A,1.2
16,G69U U112G U125A,1.09
17,C70U C94G A95G,-1.78
18,C70G C80A C104G C124G,-6.03
19,C70A G77A A90G,-1.37
20,G69C C89G,-3.31
21,C70G A95U C114A,-6.28
22,G69U A84C C124A,1.33
23,G69U U129A,-0.546
24,C70A C80G U87A C88U C94U C123G,-6.08

row,Variant,polymerase ribozyme fitness (log ratio)
1,C70A C114G,-4.93
2,C70A C114U,-3.91
3,G69U A119G G122C,-2.33
4,C70A G77C,-2.99
5,G69U G71U G120U U126A,-0.887
6,C70A C85U C88U G122U C124G,-2.37
7,C70A C124G U125A,0.0006
8,C70U C97U,-0.226
9,C70A G117A,-3.29
10,G69U C99A A111C,-2.81
11,C70G C88G,-5.57
12,C70G C124A G127U U132C,-0.524
13,G69U C85G,-0.537
14,G69U C72U U87A G113A,-1.35
15,C70G U92C C123A,-5.06
16,G69U A74U G135C,-0.511
17,C70A C72U U92G G120U,-6
18,C70A U87A,-1.22
19,C70U U78C A105U G120C U130A,-3.59
20,C70U A74U,-0.47
21,C70U A74G,-1.83
22,C70G A100C C123A,-4.49
23,C70U C88G,-1.63
24,C70U C88A,-0.884

row,Variant,polymerase ribozyme fitness (log ratio)
1,G69U C124U,2.41
2,C70G A118U,-1.64
3,G69C U112A,-0.545
4,C70G A121U,-0.929
5,C70G A121G,-0.69
6,C70U C102A G127A,-3.84
7,C70G A111U G117U A121U,-6.12
8,C70A C101U U106C,-1.6
9,C70U C114G,-3.48
10,C70A U81A,-2.88
11,C70A C123G,-0.534
12,C70A C123U,-0.0495
13,G69U A84U,0.757
14,G69U A84C,0.129
15,C70U C85A C94U U112C,-0.466
16,G69U C73G C80A,-7.09
17,G69U G113A,-0.285
18,G69U G113C,-0.897
19,C70G A84U C85U C104U,-4.81
20,G69C C124G,0.351
21,G69C U92A U133G,-4.36
22,G69U U81G A103U,-6.76
23,C70U G110A,-1.77
24,C70U C86U,-1.4

row,Variant,polymerase ribozyme fitness (log ratio)
1,C70U C86G,-1.54
2,C70U C86A,-1.13
3,G69C U109A,-8.01
4,C70U G117U,-3.24
5,G69U C86U,-0.254
6,G69U G110C U125C,-1.52
7,C70U A100C,-1.61
8,C70U A100U,-1.33
9,C70U C89A A90G U92A,-6.08
10,G69C U131A,-2.41
11,C70G C82G C124A U131G,-3.38
12,C70U C94U,-0.0504
13,C70U C79G C114A,-6.1
14,G69C U87A,-1.98
15,G69U C123G,2.28
16,C70U C80A A90U C123A,-6.41
17,G69C C79G U109G,-6.78
18,G69U C99A G127C,-3.98
19,C70U C99A A121G,-5.54
20,G69U C86A C104U,0.251
21,G69U U78C,0.191
22,G69C C102U A108C A111G C115U U130A,-6.19
23,C70U G135A,-1.42
24,C70U C102G,-6.87

row,Variant,polymerase ribozyme fitness (log ratio)
1,C70G G77A,-1.74
2,C70A C72G,-4.19
3,G69C G135C,-1.59
4,G69U U81C G120C G122A G128A,-3.32
5,G69C C99U G120U,-5.41
6,G69U U78C C88U,0.314
7,C70U G113A,-1.39
8,G69U C115U,-0.095
9,G69U G71A A84C,-4.28
10,C70U A91U G113A,-2.99
11,G69C C123U,-0.24
12,G69U C98G,-2.4
13,C70U A118U,0.0135
14,G69U C104U C115U,1.66
15,C70G C85U,-3.79
16,G69U C97G,-3.33
17,G69U C97U,0.163
18,G69U C89A,-0.471
19,C70U G128U,-1.82
20,C70U A95U C124A,-2.31
21,C70U C104A,-2.32
22,C70A A95G,-1.6
23,G69U C101U U126C,-0.166
24,G69U A95U G122A,-0.876

row,Variant,polymerase ribozyme fitness (log ratio)
1,C70A C82U A84C U87C U116A C123G U131C,-1.57
2,C70G G122A,-3.06
3,C70G G122U,-2.27
4,C70U C86U G117A,-2.35
5,C70A C89A C104U A111U G113A G127C,-6.35
6,C70A A111U A121U,-5.08
7,C70A A108U C124A,-5.58
8,C70G C82A G113C,-6.03
9,C70U C72G A75U,-1.29
10,C70A A75G,-2.89
11,C70U U81A,-3.3
12,G69C C115G,-3.08
13,G69U U112G,0.676
14,G69U A74U C80U,-0.977
15,G69U G93U G110A,-0.494
16,C70U C72U,0.27
17,C70G A105G,-5.16
18,C70U C115U,-1.84
19,G69C C102U,-3.02
20,C70A U78C,-1.85
21,G69U C101A,-0.434
22,G69U A95G G135U,-0.343
23,G69C U78G C115U U125A,-5.54
24,G69C U96C,-2.24

row,Variant,polymerase ribozyme fitness (log ratio)
1,C70U C76G G77A G113C,-3.85
2,G69U G120A G128C,-1.25
3,G69U U109A,-2.79
4,G69U U109C,-0.222
5,C70U A108G,-2.04
6,C70G C94G C123A,-3.58
7,C70U C73G A105U,-4.61
8,C70U C97A C102G U109G G117A,-6.26
9,C70U C76U G113C C123A,-5.89
10,G69U G122A,0.377
11,C70G A100C,-4.69
12,G69C C99U,-3.79
13,C70A U106C C114A,-4.64
14,G69C G93C G122A,-4.01
15,G69C G77A C88A G127A U129A,-5.53
16,G69U C73U,0.225
17,G69U A118C,-2.03
18,G69C G93C,-3.05
19,G69C G93U,-2.49
20,G69U C104U G127A,-0.309
21,C70G A103G,-4.93
22,C70A C101G,-4.14
23,C70G C85A G93A C99G G110U,-6.29
